Ten molecules from US20230057904A1 (Chugai, published 2023) can be followed below.

Changes are numbered by the printed parent chain.

Assay [1] addresses ECM. The assay is described as follows: ECM binding assay, ECL reaction.
The target in assay [2] is ECM. The assay is described as follows: ECM binding assay, ECL reaction, value divided by that of MRA.
The target in assay [3] is T1, human CLDN3 (human, UniProt O15551 1-220).
T1 construct: also called hCLDN3; hCLDN3/BaF
T1 sequence: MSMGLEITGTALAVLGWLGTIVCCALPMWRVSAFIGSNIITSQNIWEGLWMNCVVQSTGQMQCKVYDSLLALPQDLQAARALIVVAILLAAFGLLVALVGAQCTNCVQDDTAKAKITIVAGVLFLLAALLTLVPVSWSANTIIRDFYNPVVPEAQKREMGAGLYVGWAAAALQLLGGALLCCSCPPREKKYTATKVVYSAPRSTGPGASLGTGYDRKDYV
In words: flow cytometry, FreeStyle 293-F transfectants expressing human CLDN3, anti-human IgG Alexa Fluor 647; MFI. The procedure: (§1) Antibodies were mixed with FreeStyle™ 293-F cells transiently expressed human and mouse CLDN3, 4, 6, and 9 at final concentration of 10 micro g/mL. After 1 hour of incubation, cells were washed by 0.1% BSA containing D-PBS(−), and incubated in 5 micro g/mL of either Goat anti-Human IgG (H+L) Cross-Adsorbed Secondary Antibody, Alexa Fluor 647 (Invitrogen, A21445) or Goat anti-Mouse IgG (H+L) Highly Cross-Adsorbed Secondary Antibody, Alexa Fluor 647 (Invitrogen, A21236), for 1 hour. Cells were then washed with 0.1% BSA containing D-PBS(−), resuspended in 5 micro L of 0.1% BSA containing D-PBS(−), and analyzed by flow cytometer (iQue Screener, intellicyte).

Another assay concerns the target T2, mouse CLDN3 (mouse, UniProt Q9Z0G9 1-219).
T2 construct: also called mCLDN3; mCLDN3/FS293
T2 sequence: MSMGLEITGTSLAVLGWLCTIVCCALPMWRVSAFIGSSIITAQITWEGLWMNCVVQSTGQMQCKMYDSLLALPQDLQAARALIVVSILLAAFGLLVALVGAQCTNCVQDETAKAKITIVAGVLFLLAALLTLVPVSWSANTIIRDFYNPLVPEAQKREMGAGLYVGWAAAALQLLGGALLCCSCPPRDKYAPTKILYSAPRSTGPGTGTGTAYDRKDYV
In words: flow cytometry, FreeStyle 293-F transfectants expressing mouse CLDN3, anti-human IgG Alexa Fluor 647; MFI. The procedure: as §1
(Flow cytometry measures light scatter and fluorescence of single cells or particles in a stream.)

Another assay addresses T3, mouse CLDN9 (mouse, UniProt Q9Z0S7 1-217).
T3 construct: also called mCLDN9; mCLDN9/FS293
T3 sequence: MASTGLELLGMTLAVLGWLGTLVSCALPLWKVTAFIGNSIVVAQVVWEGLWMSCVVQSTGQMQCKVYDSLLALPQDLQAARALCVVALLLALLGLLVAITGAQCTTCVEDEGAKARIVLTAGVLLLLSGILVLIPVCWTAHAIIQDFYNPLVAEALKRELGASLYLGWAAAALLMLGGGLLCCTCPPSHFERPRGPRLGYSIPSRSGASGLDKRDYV
In words: flow cytometry, FreeStyle 293-F transfectants expressing mouse CLDN9, anti-human IgG Alexa Fluor 647; MFI. The procedure: as §1

In another assay the target is T4, mouse CLDN6 (mouse, UniProt Q9Z262 1-219).
T4 construct: also called mCLDN6; mCLDN6/FS293
T4 chain: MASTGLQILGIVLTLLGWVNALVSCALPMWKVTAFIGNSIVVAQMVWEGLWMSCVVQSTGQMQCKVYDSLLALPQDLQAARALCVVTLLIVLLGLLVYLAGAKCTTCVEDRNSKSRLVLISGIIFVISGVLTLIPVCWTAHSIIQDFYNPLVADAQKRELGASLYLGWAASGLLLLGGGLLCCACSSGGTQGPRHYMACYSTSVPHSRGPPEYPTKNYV
The assay is described as follows: flow cytometry, FreeStyle 293-F transfectants expressing mouse CLDN6, 10 micro g/mL antibody, anti-human IgG Alexa Fluor 647; MFI. The procedure: as §1

Assay [4] has as its target T1, human CLDN3. In words: flow cytometry on hCLDN3/BaF (Ba/F3 transfectant), 15 micro g/ml antibody, Alexa Fluor 488 anti-human IgG; histogram against KLH/TR01. The procedure: (§2) Amino acid sequence are highly conserved among CLDN3, CLDN4, CLDN6 and CLDN9. Thus we examined CLDN6 binding specificity by FACS analysis. hCLDN6/BaF, hCLDN3/BaF, hCLDN4/BaF, and hCLDN9/BaF were incubated with CS2201, CS2961, AH05/TR01 and 6PHU3/TR01 at 15 micro g/ml. KLH/TR01 generated in Example 2-3 was used as a staining control. Binding of each antibody was detected with Alexa Fluor 488-conjugated anti human IgG (Invitrogen). Dead cells were separated by eFlour 780 (Invitrogen) staining.

For a further assay, the target named is T5, human CLDN4 (human, UniProt O14493 1-209).
T5 construct: also called hCLDN4; hCLDN4/BaF
T5 sequence: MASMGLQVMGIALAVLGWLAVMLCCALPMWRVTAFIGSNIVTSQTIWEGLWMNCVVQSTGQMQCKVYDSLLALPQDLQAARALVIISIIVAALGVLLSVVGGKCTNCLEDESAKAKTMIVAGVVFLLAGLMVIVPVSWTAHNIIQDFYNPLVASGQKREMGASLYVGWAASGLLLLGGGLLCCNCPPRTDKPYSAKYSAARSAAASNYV
In words: flow cytometry on hCLDN4/BaF (Ba/F3 transfectant), 15 micro g/ml antibody, Alexa Fluor 488 anti-human IgG; histogram against KLH/TR01.
Description: FIG. 35-1. Binding activity of anti-CLDN6/CD3 bispecific antibodies (CS2201, CS2961, AH05/TR01, and 6PHU3/TR01) to human CLDN family proteins (CLDN3, CLDN4, CLDN6, and CLDN9). Binding activity of anti-CLDN6/CD3 bispecific antibodies to BaF3 transfectants (hCLDN6/BaF, hCLDN3/BaF, hCLDN4/BaF, and hCLDN9/BaF) was examined by flow cytometer in a concentration of 15 micro g/ml, and plotted as histogram. KLH/TR01 was used as a negative control. The specificity of CS2961 to human CLDN6 was highest among the tested antibodies.
as §2

As for MRA (antibody), the Luminescence with ECM [1] amounted to 13000. In addition, in the assay with ECM [2], the Luminescence ratio vs MRA was determined as 1 fold.

B1: AH05/TR01 (bispecific antibody, V domains shown)
VH 1: EVQVEQSGPELVKPGASVKISCKTSGYTFTEYTMHWVKQSHGKSLEWIGGINPNNGNTRYNQKFKGKATLTVDKSSSTAYMELRTLTSEDSAVYYCARCGDFDLFFFFAYWGQGTLVTVSA
VL 1: DIVMTQSQKFMSTSVGDRVSVTCKASQNVGSNVAWYQQKPGQSPEGLISSASSRFSGVPDRFTGSGSGTDFTLTITNVQSEDLAEYFCQQYNSYPFTFGSGTELEIK
VH 2: QVQLVESGGGVVQPGGSLRLSCAASGFTFSNAWMHWVRQAPGKGLEWVAQIKDKSQNYATYVAESVKGRFTISRADSKNSIYLQMNSLKTEDTAVYYCRYVHYAAGYGVDIWGQGTTVTVSS
VL 2: DIVMTQSPLSLPVTPGEPASISCRSSQPLVHSNRNTYLHWYQQKPGQAPRLLIYKVSNRFSGVPDRFSGSGSGTDFTLKISRVEAEDVGVYYCGQGTQVPYTFGQGTKLEIK
notes: IgG format by Fab arm exchange, silent Fc; also called anti-CLDN6/CD3 bispecific antibody AH05/TR01
Regarding B1, the binding result in the assay with human CLDN3 [3] is recorded as “no binding (tested: 10 micro g/mL)”; with mouse CLDN3 it was “no binding (tested: 10 micro g/mL)”; with mouse CLDN9, “no binding (tested: 10 micro g/mL)”; in the assay with mouse CLDN6, “binds”.

B2: AE3-20/TR01 (bispecific antibody, V domains shown)
VH 1: EVKLVESGGGLVKPGGSLKLSCAASGFTFNSYTMSWVRQTPAKRLEWVVTISSGGGRTYYPDSVKGRFTISRDNARNTLYLQMSSLRSEDTAMYYCIRGDYRYDGFAYWGQGTLVTVST
VL 1: DIQMTQSPASLSASVGETVTITCRASENIDSYLAWYQQKQGKSPQLLVYASTLLVDGVPSRFSGSRSGTQFSLKINSLQSEDVARYYCQHYYSIPYTFGSGTKLEIK
VH 2: B1 VH 2
VL 2: B1 VL 2
notes: also called anti-CLDN6/CD3 bispecific antibody AE3-20/TR01; AE3.20H/AE3.20L//TR01
Turning to B2, the binding result with human CLDN3 [3] and with mouse CLDN3 was “no binding (tested: 10 micro g/mL)” throughout.

B3: bivalent IgG antibody 25H0021/20L0072 (antibody, V domains shown)
VH: QVQLVESGGGVVQPGRSLRLSCAASGFTFSSLTMSWVRQAPGQGLEWMGTISSGGGRTYYPDSVKGRFTISRDNSKNTLYLQMNSLRAEDTAVYYCARGDYRYDGFAYWGQGTLVTVSS
VL: DIQMTQSPSSLSASVGDRVTITCRASYNIDSYLAWYQQKPGKAPKLLIYASTLLVDGVPSRFSGSRSGTDFTLTISSLQPEDFATYYCQHYYSIPYTFGQGTKLEIK
Take B3: the Luminescence in the assay with ECM [1] worked out at 32900. The Luminescence ratio vs MRA in the assay with ECM [2] stood at 2.52 fold.

B4: bivalent IgG antibody 25H0024/20L0072 (antibody, V domains shown)
VH: B3 VH with L32V
VL: B3 VL
Molecule B4 registered a Luminescence with ECM [1] of 29600. Also, the Luminescence ratio vs MRA with ECM [2] worked out at 2.27 fold.

B5: bivalent IgG antibody 25H0176/20L0072 (antibody, V domains shown)
VH: B3 VH with L32Y, G54K
VL: B3 VL
Molecule B5 returned a Luminescence in the assay with ECM [1] of 77000. For the same molecule, the Luminescence ratio vs MRA with ECM [2] turned out to be 5.91 fold.

B6: bivalent IgG antibody 25H0042/20L0072 (antibody, V domains shown)
VH: B3 VH with L32Y, T33V
VL: B3 VL
Regarding B6, the Luminescence with ECM [1] was determined as 40400. In the assay with ECM [2], the Luminescence ratio vs MRA is 3.1 fold.

B7: bivalent IgG antibody 25H0322/20L0072 (antibody, V domains shown)
VH: B3 VH with L32Y, D62F
VL: B3 VL
Molecule B7 displayed a Luminescence with ECM [1] of 70600. Moreover, in the assay with ECM [2], the Luminescence ratio vs MRA was 5.41 fold.

B8: bivalent IgG antibody 25H0562/20L0072 (antibody, V domains shown)
VH: B3 VH with L32Y, Y108M
VL: B3 VL
Turning to B8, the Luminescence with ECM [1] was 32600. Moreover, the Luminescence ratio vs MRA in the assay with ECM [2] turned out to be 2.5 fold.

B9: CS2201 (bispecific antibody, V domains shown)
VH 1: B3 VH with L32Y
VL 1: B3 VL with A50Y
VH 2: B1 VH 2
VL 2: B1 VL 2
notes: Fab arm exchange, silent Fc; also called 25H/20L0532//TR01
Turning to B9, the binding result in the assay with human CLDN3 [4] and with human CLDN4 was “binds” in each case.
